No end group written: not given here.
Key:
Test in all cases: Kinase Profiling Assay
Assay type in all cases: biochemical
Settings in all cases: peptide 100 μM
[1] = molecular target: CK2(h) (Homo sapiens, UniProt P68400)
Procedure: (§1) Every kinase activity measurement was conducted in duplicate.
(§2) Specifically, in these assays, a positively charged substrate is phosphorylated with a radiolabeled phosphate group from an ATP if the kinase is not inhibited by an inhibitor peptide. The positively charged substrate then is attracted to a negatively charged filter membrane, quantified with a scintillation counter, and compared to a 100% activity control.
(§3) In addition to determining the IC50 of the compound, the specificity of MK2 inhibitory peptides was assessed by examining activities of all 266 human kinases available for testing in the Millipore kinase profiling service (Table 1).

[2] = molecular target: EphA5(h) (Homo sapiens, UniProt P54756)
EphA5(h), sequence (P54756 25-1037): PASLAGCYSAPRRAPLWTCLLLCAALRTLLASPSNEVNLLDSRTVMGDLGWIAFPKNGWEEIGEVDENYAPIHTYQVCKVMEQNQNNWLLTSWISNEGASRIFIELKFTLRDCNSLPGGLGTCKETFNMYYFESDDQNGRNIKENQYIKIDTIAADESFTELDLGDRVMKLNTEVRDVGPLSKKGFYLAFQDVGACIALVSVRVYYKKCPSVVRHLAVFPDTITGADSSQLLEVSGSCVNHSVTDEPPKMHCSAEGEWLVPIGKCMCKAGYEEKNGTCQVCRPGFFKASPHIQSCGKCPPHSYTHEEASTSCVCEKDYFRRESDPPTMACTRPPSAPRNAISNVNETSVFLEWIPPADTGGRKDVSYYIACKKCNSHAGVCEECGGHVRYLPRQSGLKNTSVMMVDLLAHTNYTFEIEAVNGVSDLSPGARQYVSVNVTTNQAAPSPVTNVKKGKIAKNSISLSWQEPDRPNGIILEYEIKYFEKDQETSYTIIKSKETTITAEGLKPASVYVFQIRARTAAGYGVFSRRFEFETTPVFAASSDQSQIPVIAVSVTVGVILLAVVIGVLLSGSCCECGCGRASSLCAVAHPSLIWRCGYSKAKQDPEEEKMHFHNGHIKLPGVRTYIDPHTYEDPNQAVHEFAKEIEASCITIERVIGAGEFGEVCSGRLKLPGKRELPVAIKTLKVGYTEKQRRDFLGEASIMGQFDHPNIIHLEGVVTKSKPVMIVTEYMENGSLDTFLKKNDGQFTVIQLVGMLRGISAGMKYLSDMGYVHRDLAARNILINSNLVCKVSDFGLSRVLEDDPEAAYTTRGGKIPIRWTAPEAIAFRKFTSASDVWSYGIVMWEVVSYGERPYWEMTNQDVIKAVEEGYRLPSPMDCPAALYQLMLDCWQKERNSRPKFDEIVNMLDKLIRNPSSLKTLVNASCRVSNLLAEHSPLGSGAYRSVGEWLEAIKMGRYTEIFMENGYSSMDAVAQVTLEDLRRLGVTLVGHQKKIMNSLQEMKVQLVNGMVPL
Procedure: as §1, §2, §3

[3] = molecular target: T1, Rse(h) (Homo sapiens, UniProt Q06418)
T1 sequence (Q06418 41-890): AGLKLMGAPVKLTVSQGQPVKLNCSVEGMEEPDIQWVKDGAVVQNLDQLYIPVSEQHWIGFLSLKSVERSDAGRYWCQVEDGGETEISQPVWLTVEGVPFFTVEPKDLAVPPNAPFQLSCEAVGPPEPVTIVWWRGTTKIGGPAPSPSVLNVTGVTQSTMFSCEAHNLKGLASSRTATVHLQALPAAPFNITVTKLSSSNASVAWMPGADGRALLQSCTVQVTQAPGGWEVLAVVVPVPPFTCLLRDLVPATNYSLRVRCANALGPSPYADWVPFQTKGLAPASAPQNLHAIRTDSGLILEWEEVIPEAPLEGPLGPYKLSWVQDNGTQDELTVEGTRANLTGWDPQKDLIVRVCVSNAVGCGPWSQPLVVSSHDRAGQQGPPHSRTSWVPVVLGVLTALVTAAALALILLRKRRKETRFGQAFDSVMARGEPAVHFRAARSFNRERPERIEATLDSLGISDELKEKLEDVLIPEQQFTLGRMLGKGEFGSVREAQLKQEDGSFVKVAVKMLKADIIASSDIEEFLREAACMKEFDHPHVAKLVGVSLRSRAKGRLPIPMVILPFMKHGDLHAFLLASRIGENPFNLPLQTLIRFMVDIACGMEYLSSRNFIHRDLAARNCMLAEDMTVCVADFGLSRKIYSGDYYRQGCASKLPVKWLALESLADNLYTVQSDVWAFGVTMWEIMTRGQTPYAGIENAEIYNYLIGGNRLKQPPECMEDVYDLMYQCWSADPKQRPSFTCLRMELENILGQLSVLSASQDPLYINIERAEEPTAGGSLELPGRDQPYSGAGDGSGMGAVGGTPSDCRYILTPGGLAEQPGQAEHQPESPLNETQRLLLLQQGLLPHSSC
Procedure: as §1, §2, §3

[4] = molecular target: CK1δ(h) (Homo sapiens, UniProt P48730)
CK1δ(h), sequence (P48730 whole entry): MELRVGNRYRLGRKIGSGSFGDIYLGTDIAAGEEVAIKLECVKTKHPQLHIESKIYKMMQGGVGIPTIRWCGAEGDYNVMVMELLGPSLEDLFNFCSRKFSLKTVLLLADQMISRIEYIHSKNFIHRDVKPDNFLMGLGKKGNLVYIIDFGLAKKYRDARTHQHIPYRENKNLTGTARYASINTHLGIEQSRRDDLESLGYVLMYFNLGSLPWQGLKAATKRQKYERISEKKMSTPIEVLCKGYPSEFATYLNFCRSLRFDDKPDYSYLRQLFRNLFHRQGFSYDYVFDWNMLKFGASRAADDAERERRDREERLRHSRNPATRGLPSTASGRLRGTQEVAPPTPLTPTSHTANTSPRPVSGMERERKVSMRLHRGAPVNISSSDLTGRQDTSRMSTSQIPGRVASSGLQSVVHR
Procedure: as §1, §2, §3

[5] = molecular target: T2, NEK11(h) (Homo sapiens, UniProt Q8NG66)
T2 construct: purchased Millipore
T2 sequence (Q8NG66 1-645): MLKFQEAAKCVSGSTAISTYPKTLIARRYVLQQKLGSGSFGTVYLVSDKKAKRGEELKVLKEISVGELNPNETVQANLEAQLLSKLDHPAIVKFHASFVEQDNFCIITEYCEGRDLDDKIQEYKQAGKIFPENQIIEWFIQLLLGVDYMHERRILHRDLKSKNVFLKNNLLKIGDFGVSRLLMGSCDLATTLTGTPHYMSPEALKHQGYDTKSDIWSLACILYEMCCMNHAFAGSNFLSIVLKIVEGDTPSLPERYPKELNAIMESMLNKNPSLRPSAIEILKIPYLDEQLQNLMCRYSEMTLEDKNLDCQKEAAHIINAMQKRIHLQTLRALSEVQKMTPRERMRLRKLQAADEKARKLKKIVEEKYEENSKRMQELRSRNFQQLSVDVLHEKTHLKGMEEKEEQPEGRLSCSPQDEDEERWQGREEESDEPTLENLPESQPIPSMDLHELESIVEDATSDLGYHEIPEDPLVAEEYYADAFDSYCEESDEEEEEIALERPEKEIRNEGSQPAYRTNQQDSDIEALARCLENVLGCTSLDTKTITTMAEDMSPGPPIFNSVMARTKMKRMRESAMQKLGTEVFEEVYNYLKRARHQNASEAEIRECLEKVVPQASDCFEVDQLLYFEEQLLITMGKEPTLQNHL
Procedure: as §1, §2, §3

[6] = molecular target: T3, BrSK2(h) (Homo sapiens, UniProt Q8IWQ3)
T3 sequence (Q8IWQ3 1-736): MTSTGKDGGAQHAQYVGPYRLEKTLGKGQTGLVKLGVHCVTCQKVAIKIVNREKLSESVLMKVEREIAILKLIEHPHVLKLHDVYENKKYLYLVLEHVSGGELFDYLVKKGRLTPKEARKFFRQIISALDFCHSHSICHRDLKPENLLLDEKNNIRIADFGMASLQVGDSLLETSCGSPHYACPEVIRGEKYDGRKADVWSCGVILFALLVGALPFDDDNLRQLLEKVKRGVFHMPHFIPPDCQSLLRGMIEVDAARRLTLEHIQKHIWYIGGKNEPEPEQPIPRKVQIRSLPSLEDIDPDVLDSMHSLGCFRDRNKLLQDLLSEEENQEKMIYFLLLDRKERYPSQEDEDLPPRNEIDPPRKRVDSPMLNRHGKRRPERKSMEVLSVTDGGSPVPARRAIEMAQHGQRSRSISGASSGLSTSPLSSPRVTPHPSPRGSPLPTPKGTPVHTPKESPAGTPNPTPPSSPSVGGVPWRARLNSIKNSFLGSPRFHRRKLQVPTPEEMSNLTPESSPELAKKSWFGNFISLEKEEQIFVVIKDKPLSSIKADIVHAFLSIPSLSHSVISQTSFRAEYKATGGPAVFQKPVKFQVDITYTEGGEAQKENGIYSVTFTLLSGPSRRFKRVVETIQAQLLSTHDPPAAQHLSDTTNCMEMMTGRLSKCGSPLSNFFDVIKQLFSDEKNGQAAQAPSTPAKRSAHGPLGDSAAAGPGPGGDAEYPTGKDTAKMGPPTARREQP
Procedure: as §1, §2, §3

[7] = molecular target: T4, STK33(h) (Homo sapiens, UniProt Q9BYT3)
T4 construct: purchased Millipore
T4 sequence (Q9BYT3 whole entry): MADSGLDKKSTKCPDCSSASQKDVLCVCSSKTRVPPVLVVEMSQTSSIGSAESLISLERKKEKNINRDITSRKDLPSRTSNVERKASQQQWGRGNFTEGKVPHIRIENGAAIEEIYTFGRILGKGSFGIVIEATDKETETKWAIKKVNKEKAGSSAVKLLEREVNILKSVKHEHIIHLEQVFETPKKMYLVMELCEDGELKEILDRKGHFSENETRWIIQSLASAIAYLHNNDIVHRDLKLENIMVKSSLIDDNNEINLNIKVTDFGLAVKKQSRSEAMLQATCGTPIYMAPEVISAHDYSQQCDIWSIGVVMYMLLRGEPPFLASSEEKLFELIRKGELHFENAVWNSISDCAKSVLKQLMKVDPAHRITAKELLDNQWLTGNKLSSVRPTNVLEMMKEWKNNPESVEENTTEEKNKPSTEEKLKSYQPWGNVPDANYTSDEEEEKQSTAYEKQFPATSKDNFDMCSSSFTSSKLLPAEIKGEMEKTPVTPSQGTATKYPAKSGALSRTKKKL
Procedure: as §1, §2, §3

[8] = molecular target: PKBβ(h) (Homo sapiens, UniProt P31751)
PKBβ(h), sequence (P31751 whole entry): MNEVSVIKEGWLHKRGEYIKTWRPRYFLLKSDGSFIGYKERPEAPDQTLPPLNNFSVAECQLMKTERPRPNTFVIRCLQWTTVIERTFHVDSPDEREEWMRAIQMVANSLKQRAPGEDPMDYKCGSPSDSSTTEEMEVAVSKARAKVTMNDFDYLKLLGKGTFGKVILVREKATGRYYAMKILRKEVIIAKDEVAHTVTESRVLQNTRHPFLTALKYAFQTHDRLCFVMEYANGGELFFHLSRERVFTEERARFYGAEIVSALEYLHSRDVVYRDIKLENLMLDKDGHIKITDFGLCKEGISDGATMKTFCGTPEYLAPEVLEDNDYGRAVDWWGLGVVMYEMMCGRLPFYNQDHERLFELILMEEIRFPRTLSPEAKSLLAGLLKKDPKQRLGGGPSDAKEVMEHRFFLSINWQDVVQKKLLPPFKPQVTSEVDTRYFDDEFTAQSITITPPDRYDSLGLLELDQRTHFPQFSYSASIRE
Procedure: as §1, §2, §3

[9] = molecular target: T5, SRPK2(h) (Homo sapiens, UniProt P78362)
T5 construct: purchased Millipore
T5 sequence (P78362 whole entry): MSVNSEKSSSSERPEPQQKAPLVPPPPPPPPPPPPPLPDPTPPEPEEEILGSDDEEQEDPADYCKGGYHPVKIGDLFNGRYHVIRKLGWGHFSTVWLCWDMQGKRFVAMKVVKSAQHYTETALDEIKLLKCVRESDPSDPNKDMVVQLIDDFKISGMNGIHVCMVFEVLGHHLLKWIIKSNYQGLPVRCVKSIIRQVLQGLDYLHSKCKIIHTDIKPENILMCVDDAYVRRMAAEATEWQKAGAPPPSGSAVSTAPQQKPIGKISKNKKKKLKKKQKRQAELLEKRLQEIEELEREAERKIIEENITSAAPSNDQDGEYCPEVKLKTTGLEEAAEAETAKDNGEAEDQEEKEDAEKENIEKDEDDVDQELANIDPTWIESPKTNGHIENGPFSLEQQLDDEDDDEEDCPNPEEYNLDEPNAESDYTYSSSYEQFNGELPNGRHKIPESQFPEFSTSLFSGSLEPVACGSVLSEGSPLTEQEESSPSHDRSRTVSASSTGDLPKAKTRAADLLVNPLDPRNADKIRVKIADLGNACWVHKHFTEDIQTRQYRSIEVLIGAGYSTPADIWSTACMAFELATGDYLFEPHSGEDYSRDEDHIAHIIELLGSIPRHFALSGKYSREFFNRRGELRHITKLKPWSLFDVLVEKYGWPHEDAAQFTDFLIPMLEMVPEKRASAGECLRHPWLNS
Procedure: as §1, §2, §3

[10] = molecular target: T6, Met(Y1248H)(h) (Homo sapiens, UniProt P08581, Y1230H)
T6 construct: purchased Millipore
Procedure: as §1, §2, §3

CK2(h), sequence (P68400 whole entry): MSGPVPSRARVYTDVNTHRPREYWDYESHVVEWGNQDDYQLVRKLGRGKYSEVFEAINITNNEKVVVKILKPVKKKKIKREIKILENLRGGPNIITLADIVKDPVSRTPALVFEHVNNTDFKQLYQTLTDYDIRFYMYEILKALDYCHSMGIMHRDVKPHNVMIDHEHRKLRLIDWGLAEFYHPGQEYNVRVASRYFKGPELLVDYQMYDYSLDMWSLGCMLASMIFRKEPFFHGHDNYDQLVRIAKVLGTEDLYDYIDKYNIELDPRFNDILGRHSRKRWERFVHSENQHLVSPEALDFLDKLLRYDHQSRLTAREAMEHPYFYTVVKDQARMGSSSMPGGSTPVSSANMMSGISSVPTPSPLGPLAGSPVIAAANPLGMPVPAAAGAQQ
CK2(h), sequence (P67870 whole entry partner): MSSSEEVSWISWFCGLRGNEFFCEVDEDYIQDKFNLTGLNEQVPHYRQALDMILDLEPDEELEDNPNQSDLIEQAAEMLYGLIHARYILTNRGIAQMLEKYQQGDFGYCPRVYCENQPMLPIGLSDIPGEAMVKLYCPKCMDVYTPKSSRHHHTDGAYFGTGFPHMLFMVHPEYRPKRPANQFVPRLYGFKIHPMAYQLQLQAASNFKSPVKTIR

Sequence | % activity [1] | % activity [2] | % activity [3] | % activity [4] | % activity [5] | % activity [6] | % activity [7] | % activity [8] | % activity [9] | % activity [10]
FAKLAARLYRKALARQLGVAA [MMI-0300] | 90% | 18% | 88% | 92% | 53% | 83% | 45% | 84% | – | –
HRRIKAWLKKIKALARQLGVAA (Mammal) [MMI-0500] | 93% | 42% | 63% | 78% | 2% | 84% | 16% | 21% | 80% | 126%
KAFAKLAARLYRKALARQLGVAA [MMI-0400] | 101% | 24% | 89% | 93% | 33% | 86% | 52% | 98% | 97% | 63%
YARAAARQARAKALARQLGVAA [MMI-0100] | – | 110% | – | – | – | 129% | 99% | – | 92% | 88%
YARAAARQARAKALNRQLGVA (Mammal) [MMI-0200] | 83% | 123% | 88% | 92% | 95% | – | 98% | 250% | 100% | 153%

From patent US20150258192A1, “COMPOSITIONS AND METHODS FOR PREVENTING OR TREATING CHRONIC LUNG ALLOGRAFT DYSFUNCTION (CLAD) AND IDIOPATHIC PULMONARY FIBROSIS (IPF)” (priority 2014, published 2015)
